Source: IntAct's records for PubMed 9528767

B1: Small nuclear ribonucleoprotein E (Saccharomyces cerevisiae), Q12330 (parent)
chain: MSNKVKTKAMVPPINCIFNFLQQQTPVTIWLFEQIGIRIKGKIVGFDEFMNVVIDEAVEIPVNSADGKEDVEKGTPLGKILLKGDNITLITSAD
partner: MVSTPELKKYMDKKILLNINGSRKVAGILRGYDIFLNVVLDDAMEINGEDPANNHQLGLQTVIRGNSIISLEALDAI
B2: Small nuclear ribonucleoprotein E (Saccharomyces cerevisiae), Q12330 (parent)
chain: B1 chain

Variants of: B1
Details: with ruxg_yeast SMX2, P40204

Variant	effect of a mutation on the interaction
MSNKVKTKAMVPPINCIFNFLQQQTPVTIWLFEQIGIRIKGKIVGFDEFMNVVIDEAVEIPVNSADGKEDVEKGTSLGKILLKGDNITLITSAD	with no effect
MSNKVKTKAMVPPINCIFNFLQQQTPVTIWLFEQIGIRIKGKIVGFDEFMNVVIDEAVEIPVNSADGKEDVEKGTPLGKILLKGDAITLITSAD	decreasing interaction strength
MSNKVKTKAMVPPINCIFNFLQQQTPVTIWLFEQIGIRIKGKIVGFDEFMNVVIDEAVEIPVNSADGKEDVEKGTPLGKILLKGDNITLRTSAD	disrupting interaction strength
MSNKVKTKAMVPPINCIFNFLQQQTPETIWLFEQIGIRIKGKIVGFDEFMNVVIDEAVEIPVNSADGKEDVEKGTPLGKILLKGDNITLITSAD	disrupting interaction strength
MSNKVKTKAMVPPINCIFNFLQQQTPVTIWLFEQIGIRIKGKIVVFDEFMNVVIDEAVEIPVNSADGKEDVEKGTPLGKILLKGDNITLITSAD	with no effect
MSNKVKTKAMVPPINCIFNFLQQQTPVTIWLFEQIGIRIKGKIVGFDEFMNVVIDEAVEIPVNSADGKEDVEKGTPLGKILLKADNITLITSAD	with no effect
MSNKVETKAMVPPINCIFNFLQQQTPVTIWLFEQIGIRIKGKIVGFDEFMNVVIDEAVEIPVNSADGKEDVEKGTPLGKILLKGDNITLITSAD	with no effect
MSNKVKTKAMVPPINCIFNFLQQQTPVTIWLFEQIGIRIKDKIVGFDEFMNVVIDEAVEIPVNSADGKEDVEKGTPLGKILLKGDNITLITSAD	disrupting interaction strength
MSNKVKTKAVVPPINCIFNFLQQQTPVTIWLFEQIGIRIKGKIVGFDEFMNVVIDEAVEIPVNSADGKEDVEKGTPLGKILLKGDNITLITSAD	with no effect
MSTKVKTKAMVPPINCIFNFLQQQTPVTIWLFEQIGIRIKGKIVGFDEFMNVVIDEAVEIPVNSADGKEDVEKGTPLGKILLKGDNITLITSAD	with no effect
MSNKVKTKAMVPPINCIFNFLQQQTPVTIWLFEQIGIRIKGKIVGFDEFMNVVIDEAVEIPVNSADGKEDVEKGTPLGKIPLKGDNITLITSAD	with no effect
MSNKVKTKAMVPPINCIFNFLQQQTPVTIWLFEQIGIRIKGKIVGFDEFANVVIDEAVEIPVNSADGKEDVEKGTPLGKILLKGDNITLITSAD	decreasing interaction strength
MSNKVKTKAMVPPINCIFNFLQQQTPVTIWLFEQIGIRIKGKIVGFAEFMNVVIDEAVEIPVNSADGKEDVEKGTPLGKILLKGDNITLITSAD	decreasing interaction strength
MSNKVKTKAMVPPINCIFNFLQQQTPVTIWLFEQIGIRIKGKIVGFHEFMNVVIDEAVEIPVNSADGKEDVEKGTPLGKILLKGDNITLITSAD	decreasing interaction strength
MSNKVKTKAMVPPINCIFNFLQQQTPVTIWSFEQIGIRIKGKIVGFDEFMNVVIDEAVEIPVNSADGKEDVEKGTPLGKILLKGDNITLITSAD	with no effect
MSNKVKTKAMVPPINCIFNFLQQQTPVTIWLFEQIGIRIKGKIVGFDEFMNVVNDEAVEIPVNSADGKEDVEKGTPLGKILLKGDNITLITSAD	disrupting interaction strength
MSNKVKTKAMVPPINCIFNFLQQQTPVTIWLFEQIGIRIKGKIVGFDEFMNVVIDEAVAIPVDSADGKEDVEKGTPLGKILLKGDNITLITSAD	with no effect
MSNKVKTKAMVPPINCIFNFLQQQTPVTIWLFEQIGIRIKGKIVGFDEFMNVVIDEAVEIPVNSADGKEDVEKGTPLGKILLVGDNITLITSAD	with no effect
MSNKVKTKAMVPPINCIFNFLQQQTPVTIWLFEQIGIRIKGKIVGFDEFMNVVIDEAVEIPVNSADGKEDVEKGTPLGKFLLKGDNITLITSAD	with no effect
MSNKVKTKAMVPPINCIFNFLQQQTPVTKWLFEQIGIRIKGKIVGFDEFMNVVIDEAVEIPVNSADGKEDVEKGTPLGKILLKGDNITLITSAD	disrupting interaction strength
MSNKVKTKAMVPPINCIFNFLQQQTPVTIWLFEQIGIRIKGKIVGFDEFMAVVIDEAVEIPVNSADGKEDVEKGTPLGKILLKGDNITLITSAD	with no effect

Variants of: B1
Details: with ruxg_yeast SMX2, P40204
Remark: another data set of the same source

Variant	effect of a mutation on the interaction
MSNKVKTKAMVPPINCIFNFLLQQTPVTIWLFEQIGIRIKGKIVGFDEFMNVVIDEAVEIPVNSADGKEDVEKGTPLGKILLKGDNITLITSAD	disrupting interaction strength

Variants of: B2
Details: with ruxf_yeast SMX3, P54999
Chain of ruxf_yeast SMX3, P54999 (P54999 whole entry): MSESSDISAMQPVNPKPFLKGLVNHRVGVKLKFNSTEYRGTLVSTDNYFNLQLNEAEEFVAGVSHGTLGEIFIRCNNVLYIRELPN

Variant	effect of a mutation on the interaction
MSNKVKTKAMVPPINCIFNFLQQQTPVTIWLFEQIGIRIKGKIVGFDEFMNVVIDEAVEIPVNSADGKEDVEKGTSLGKILLKGDNITLITSAD	with no effect
MSNKVKTKAMVPPINCIFNFLQQQTPVTIWLFEQIGIRIKGKIVGFDEFMNVVNDEAVEIPVNSADGKEDVEKGTPLGKILLKGDNITLITSAD	disrupting interaction strength
MSTKVKTKAMVPPINCIFNFLQQQTPVTIWLFEQIGIRIKGKIVGFDEFMNVVIDEAVEIPVNSADGKEDVEKGTPLGKILLKGDNITLITSAD	increasing interaction strength
MSNKVKTKAMVPPINCIFNFLQQQTPETIWLFEQIGIRIKGKIVGFDEFMNVVIDEAVEIPVNSADGKEDVEKGTPLGKILLKGDNITLITSAD	disrupting interaction strength
MSNKVKTKAVVPPINCIFNFLQQQTPVTIWLFEQIGIRIKGKIVGFDEFMNVVIDEAVEIPVNSADGKEDVEKGTPLGKILLKGDNITLITSAD	with no effect
MSNKVKTKAMVPPINCIFNFLQQQTPVTIWLFEQIGIRIKGKIVGFDEFMAVVIDEAVEIPVNSADGKEDVEKGTPLGKILLKGDNITLITSAD	decreasing interaction strength
MSNKVKTKAMVPPINCIFNFLQQQTPVTKWLFEQIGIRIKGKIVGFDEFMNVVIDEAVEIPVNSADGKEDVEKGTPLGKILLKGDNITLITSAD	disrupting interaction strength
MSNKVKTKAMVPPINCIFNFLQQQTPVTIWLFEQIGIRIKGKIVGFDEFMNVVIDEAVEIPVNSADGKEDVEKGTPLGKILLKGDNITLRTSAD	decreasing interaction strength
MSNKVKTKAMVPPINCIFNFLQQQTPVTIWLFEQIGIRIKGKIVGFAEFMNVVIDEAVEIPVNSADGKEDVEKGTPLGKILLKGDNITLITSAD	disrupting interaction strength
MSNKVKTKAMVPPINCIFNFLQQQTPVTIWLFEQIGIRIKGKIVGFHEFMNVVIDEAVEIPVNSADGKEDVEKGTPLGKILLKGDNITLITSAD	disrupting interaction strength
MSNKVKTKAMVPPINCIFNFLQQQTPVTIWLFEQIGIRIKGKIVVFDEFMNVVIDEAVEIPVNSADGKEDVEKGTPLGKILLKGDNITLITSAD	with no effect
MSNKVKTKAMVPPINCIFNFLQQQTPVTIWLFEQIGIRIKGKIVGFDEFMNVVIDEAVAIPVDSADGKEDVEKGTPLGKILLKGDNITLITSAD	with no effect
MSNKVKTKAMVPPINCIFNFLQQQTPVTIWLFEQIGIRIKGKIVGFDEFMNVVIDEAVEIPVNSADGKEDVEKGTPLGKFLLKGDNITLITSAD	decreasing interaction strength
MSNKVETKAMVPPINCIFNFLQQQTPVTIWLFEQIGIRIKGKIVGFDEFMNVVIDEAVEIPVNSADGKEDVEKGTPLGKILLKGDNITLITSAD	with no effect
MSNKVKTKAMVPPINCIFNFLQQQTPVTIWLFEQIGIRIKGKIVGFDEFANVVIDEAVEIPVNSADGKEDVEKGTPLGKILLKGDNITLITSAD	decreasing interaction strength
MSNKVKTKAMVPPINCIFNFLQQQTPVTIWLFEQIGIRIKDKIVGFDEFMNVVIDEAVEIPVNSADGKEDVEKGTPLGKILLKGDNITLITSAD	disrupting interaction strength
MSNKVKTKAMVPPINCIFNFLQQQTPVTIWSFEQIGIRIKGKIVGFDEFMNVVIDEAVEIPVNSADGKEDVEKGTPLGKILLKGDNITLITSAD	with no effect
MSNKVKTKAMVPPINCIFNFLLQQTPVTIWLFEQIGIRIKGKIVGFDEFMNVVIDEAVEIPVNSADGKEDVEKGTPLGKILLKGDNITLITSAD	disrupting interaction strength
MSNKVKTKAMVPPINCIFNFLQQQTPVTIWLFEQIGIRIKGKIVGFDEFMNVVIDEAVEIPVNSADGKEDVEKGTPLGKIPLKGDNITLITSAD	disrupting interaction strength
